Entries after “also recorded” stand apart in the source; their conditions may differ.
Assays:
[1] = test system: ANF promoter in HEK 293T cells; experiment: ANF promoter dual luciferase assay in HEK 293T cells; type: cell-based; conditions: for ANF promoter luciferase expression in the presence of Nkx2.5: Nkx2.5 present
Method: (§1) For cell-based experiments, HEK 293T and HeLa cells were cultured at 37 °C and 5% CO2 in DMEM (Lonza) supplemented with 10% fetal bovine serum (FBS) (Invitrogen) and 1% Glutamax (Invitrogen). For microscopy, HeLa cells were seeded into 96-well clear bottom optical grade plates (BD Biosciences) at 8000 cells/well and allowed to settle overnight. Transfections were carried out the next day. For each well, 0.1 μg of plasmid and 0.25 μl of Lipofectamine 2000 (Invitrogen) were each incubated in 25 μl of Opti-MEM (Invitrogen) for 5 min at room temperature. The two solutions were then mixed gently but thoroughly and incubated for 20 min at room temperature. The mixture was added to the cells in 50 μl of fresh medium. Four hours later, the medium was changed, and the cells were incubated for a further 24 h before fixation. Cells were fixed in 4% (v/v) aqueous formaldehyde for 20 min, permeabilized in 0.5% Triton X-100 in phosphate-buffered saline (PBS) for 8 min, and blocked in 3% (w/v) FBS in PBS for 1 h with a PBS wash between each step. The primary antibodies were then added to the cells in blocking solution. After 1 h at room temperature, cells were washed three times in PBS, incubated with secondary antibodies for 1 h, rinsed three times in PBS again, and counterstained with DAPI before imaging. Luciferase activity assays were carried out as described previously ([13], [22], [40]). The atrial natriuretic factor (ANF) promoter-luciferase reporter was a kind gift from Benoit Bruneau ([41]). As for immunofluorescence assays, this construct was co-transfected into HEK 293T cells in the presence of full-length (FL) WT UTY(KDM6C) or H1095 UTY(KDM6C). Luciferase activity was measured using the Promega Dual-Luciferase Reporter Assay System on a Promega GloMax 20/20 luminometer. Readings were normalized to a Renilla luciferase control that was co-transfected with all samples.

[2] = test system: H3K27Me3 levels in HeLa cells; experiment: Immunofluorescence of global H3K27Me3 levels on overexpression in HeLa cells; type: cell-based; conditions: exogenous overexpression in HeLa cells
Method: as §1, with “After 1 h at room temperature, cells were washed three times in PBS, incubated with secondary antibodies for 1 h, rinsed three times in PBS again, and counterstained with DAPI before imaging. Luciferase activity assays were carried out as described previously ([13], [22], [40]). The atrial natriuretic factor (ANF) promoter-luciferase reporter was a kind gift from Benoit Bruneau ([41]). As for immunofluorescence assays, this construct was co-transfected into HEK 293T cells in the presence of full-length (FL) WT UTY(KDM6C) or H1095 UTY(KDM6C).” left out, “samples. […]” for “samples.”

| Molecule | ANF promoter luciferase expression in the presence of Nkx2.5 ([1]; HEK 293T cells) | ANF promoter luciferase expression (in words) ([1]; HEK 293T cells, without Nkx2.5, *, p < 0.05 unpaired Student's t test) | increase in ANF promoter-coupled luciferase expression ([1]; overexpression in HEK 293T cells, relative to empty vector control, average of three biological replicates of triplicate transfections) | change in global H3K27Me3 level [2] |
| --- | --- | --- | --- | --- |
| FL WT UTY(KDM6C): full-length wild type UTY(KDM6C) exogenously expressed in cells (protein, UniProt O14607 1-1347, looked up, full-length, full-length wild type UTY(KDM6C) exogenously expressed in cells) MKSCAVSLTTAAVAFGDEAKKMAEGKASRESEEESVSLTVEEREALGGMDSRLFGFVRLHEDGARTKTLLGKAVRCYESLILKAEGKVESDFFCQLGHFNLLLEDYSKALSAYQRYYSLQADYWKNAAFLYGLGLVYFYYNAFHWAIKAFQDVLYVDPSFCRAKEIHLRLGLMFKVNTDYKSSLKHFQLALIDCNPCTLSNAEIQFHIAHLYETQRKYHSAKEAYEQLLQTENLPAQVKATVLQQLGWMHHNMDLVGDKATKESYAIQYLQKSLEADPNSGQSWYFLGRCYSSIGKVQDAFISYRQSIDKSEASADTWCSIGVLYQQQNQPMDALQAYICAVQLDHGHAAAWMDLGTLYESCNQPQDAIKCYLNAARSKRCSNTSTLAARIKFLQNGSDNWNGGQSLSHHPVQQVYSLCLTPQKLQHLEQLRANRDNLNPAQKHQLEQLESQFVLMQQMRHKEVAQVRTTGIHNGAITDSSLPTNSVSNRQPHGALTRVSSVSQPGVRPACVEKLLSSGAFSAGCIPCGTSKILGSTDTILLGSNCIAGSESNGNVPYLQQNTHTLPHNHTDLNSSTEEPWRKQLSNSAQGLHKSQSSCLSGPNEEQPLFSTGSAQYHQATSTGIKKANEHLTLPSNSVPQGDADSHLSCHTATSGGQQGIMFTKESKPSKNRSLVPETSRHTGDTSNGCADVKGLSNHVHQLIADAVSSPNHGDSPNLLIADNPQLSALLIGKANGNVGTGTCDKVNNIHPAVHTKTDHSVASSPSSAISTATPSPKSTEQRSINSVTSLNSPHSGLHTVNGEGLGKSQSSTKVDLPLASHRSTSQILPSMSVSICPSSTEVLKACRNPGKNGLSNSCILLDKCPPPRPPTSPYPPLPKDKLNPPTPSIYLENKRDAFFPPLHQFCTNPKNPVTVIRGLAGALKLDLGLFSTKTLVEANNEHMVEVRTQLLQPADENWDPTGTKKIWRCESNRSHTTIAKYAQYQASSFQESLREENEKRTQHKDHSDNESTSSENSGRRRKGPFKTIKFGTNIDLSDNKKWKLQLHELTKLPAFARVVSAGNLLTHVGHTILGMNTVQLYMKVPGSRTPGHQENNNFCSVNINIGPGDCEWFVVPEDYWGVLNDFCEKNNLNFLMSSWWPNLEDLYEANVPVYRFIQRPGDLVWINAGTVHWVQAVGWCNNIAWNVGPLTACQYKLAVERYEWNKLKSVKSPVPMVHLSWNMARNIKVSDPKLFEMIKYCLLKILKQYQTLREALVAAGKEVIWHGRTNDEPAHYCSICEVEVFNLLFVTNESNTQKTYIVHCHDCARKTSKSLENFVVLEQYKMEDLIQVYDQFTLALSLSSSS | does not further enhance expression | enhanced expression | 5 -fold | no detectable decrease; also recorded: no change in H3K27Me3 levels |
| Nkx2.5: transcription factor (protein, UniProt P52952 1-324, looked up) Homeobox protein Nkx-2.5: MFPSPALTPTPFSVKDILNLEQQQRSLAAAGELSARLEATLAPSSCMLAAFKPEAYAGPEAAAPGLPELRAELGRAPSPAKCASAFPAAPAFYPRAYSDPDPAKDPRAEKKELCALQKAVELEKTEADNAERPRARRRRKPRVLFSQAQVYELERRFKQQRYLSAPERDQLASVLKLTSTQVKIWFQNRRYKCKRQRQDQTLELVGLPPPPPPPARRIAVPVLVRDGKPCLGDSAPYAPAYGVGLNPYGYNAYPAYPGYGGAACSPGYSCTAAYPAGPSPAQPATAAANNNFVNFGVGDLNAVQSPGIPQSNSGVSTLHGIRAW | enhanced expression from the ANF promoter |  |  |  |
